Source: patent US20260001935

System: aflibercept
Sequence (chain, as listed by the source): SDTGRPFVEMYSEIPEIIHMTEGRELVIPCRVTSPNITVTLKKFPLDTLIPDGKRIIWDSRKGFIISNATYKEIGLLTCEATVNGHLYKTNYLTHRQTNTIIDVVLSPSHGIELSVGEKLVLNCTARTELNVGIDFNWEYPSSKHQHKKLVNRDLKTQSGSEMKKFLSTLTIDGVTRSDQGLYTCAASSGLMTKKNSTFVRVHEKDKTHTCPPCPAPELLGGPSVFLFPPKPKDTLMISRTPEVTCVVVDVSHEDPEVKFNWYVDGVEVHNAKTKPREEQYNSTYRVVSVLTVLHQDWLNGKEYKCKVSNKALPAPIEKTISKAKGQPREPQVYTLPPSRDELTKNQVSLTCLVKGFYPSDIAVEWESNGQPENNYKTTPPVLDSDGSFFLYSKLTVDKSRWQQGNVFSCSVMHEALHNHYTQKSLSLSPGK

Sequence of cathepsin D (Chinese hamster ovary host cell protein; recombinant CHO Cathepsin D with mmh tag) (chain, as listed by the source): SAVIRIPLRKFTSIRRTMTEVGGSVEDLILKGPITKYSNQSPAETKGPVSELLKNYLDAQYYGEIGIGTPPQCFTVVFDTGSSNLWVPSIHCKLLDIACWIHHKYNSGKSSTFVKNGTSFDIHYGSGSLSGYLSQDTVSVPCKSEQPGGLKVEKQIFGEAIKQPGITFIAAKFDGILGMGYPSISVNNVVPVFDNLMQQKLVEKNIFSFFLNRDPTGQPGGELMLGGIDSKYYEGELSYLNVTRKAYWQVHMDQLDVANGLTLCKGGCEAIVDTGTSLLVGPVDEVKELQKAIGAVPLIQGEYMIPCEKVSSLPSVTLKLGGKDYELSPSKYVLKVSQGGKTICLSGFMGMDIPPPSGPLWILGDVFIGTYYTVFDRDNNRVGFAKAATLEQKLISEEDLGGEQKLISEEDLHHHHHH

## cathepsin D (Chinese hamster ovary host cell protein; recombinant CHO Cathepsin D with mmh tag)
  NR-1 band formation, and Y/L cleavage: the results demonstrated a correlation between spiked-in cathepsin D and NR-1 band formation, and Y/L cleavage
